Source: patent US20050282239A1, “Cell-permeable enzyme activation reporter that can be loaded in a high throughput and gentle manner” (priority 2003, published 2005)
Ends that are not written are not given here.

Key:
PKB [1] = molecular target: T1, PKB (Homo sapiens, UniProt P31749); experiment: CACE: intracellular phosphorylation of PKB substrate in HT1080/PTEN cells; type: cell-based; conditions: 1 μM extracellular
T1 construct: endogenous in cells; host or cells: HT1080 cells; HT1080/PTEN cells (engineered to over-express wild type PTEN, PKB itself not transfected)
T1 sequence (P31749 whole entry): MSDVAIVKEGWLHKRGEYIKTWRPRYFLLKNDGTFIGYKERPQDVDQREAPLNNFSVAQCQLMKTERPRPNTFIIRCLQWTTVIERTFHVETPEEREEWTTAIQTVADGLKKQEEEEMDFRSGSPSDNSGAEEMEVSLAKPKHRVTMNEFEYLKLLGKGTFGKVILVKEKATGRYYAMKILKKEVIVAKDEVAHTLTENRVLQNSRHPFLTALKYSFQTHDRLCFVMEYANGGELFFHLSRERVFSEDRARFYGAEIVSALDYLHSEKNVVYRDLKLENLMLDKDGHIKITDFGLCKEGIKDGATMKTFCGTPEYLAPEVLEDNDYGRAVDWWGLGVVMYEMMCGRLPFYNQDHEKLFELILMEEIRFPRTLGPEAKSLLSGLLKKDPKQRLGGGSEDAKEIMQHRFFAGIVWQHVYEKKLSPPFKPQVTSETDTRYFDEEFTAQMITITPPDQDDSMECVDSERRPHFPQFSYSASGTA
Description: Previous investigators developed cleavable PTD-cargo conjugates by engineering a disulfide linkage between the two domains (Stein, Weiss et al. 1999; Hallbrink, Floren et al. 2001). […] TAT(49-57)(SEQ ID NO:2) was conjugated via a disulfide bond to cysteines added to substrate peptides for CamKII (F-CamKII-C; SEQ ID NO:13) or PKB (F-PKB-C; SEQ ID NO:14), denoted F-CamKII-C-SS-TAT (SEQ ID NO:15) and F-PKB-C-SS-TAT (SEQ ID NO:16), respectively. The TAT(49-57)-Conjugated substrates were incubated with cells (HT1080 or HT1080/PTEN cells) and the contents of the cells were analyzed by the CACE. […]
(§1) CACE has been previously described (Sims, Meredith et al. 1998; Meredith, Sims et al. 2000; Li, Wu et al. 2001). Briefly, cells were placed on an inverted fluorescence microscope stage (Diaphot 300, Nikon, Japan) and maintained at 37° C. with an objective heater (Bioptechs; Butler, Pa.) prior to lysis unless stated otherwise. […] Cells were always maintained in ECB when analyzed by the CACE.
(§2) CE was performed as described (Sims, Meredith et al. 1998), with the following modifications. […] The loaded volume was calculated from Poiseulle's equation and from contributions by spontaneous fluid displacement and diffusion (Weinberger, 2000; Fishman, 1994; Crank, 1989). […] Analytes were detected by laser-induced fluorescence (Sims, Meredith et al. 1998). […]

PKB [2] = molecular target: T2, PKB (Rattus norvegicus, UniProt P47196); experiment: CACE: intracellular phosphorylation of PKB substrate in RBL cells; type: cell-based; conditions: 750 nM extracellular
T2 construct: endogenous in cells; host or cells: RBL-2H3 rat basophilic leukemia cells, with or without PIP3-histone
T2 sequence (P47196 whole entry): as the sequence (P31749 whole entry) above, with S2N, D46E, A50S, K112R, E117T, S137A, K389T, G410N, H415D counted along it
Description: To determine whether the F-PKB-C delivered to cells by addition of F-PKB-C-SS-TAT (SEQ ID NO:16) at a 750 nM extracellular concentration could also be phosphorylated after pharmacologic activation of PKB (rather than constitutively active PKB), PIP3-histone was added to RBL cells. […] The CACE was used to analyze the amount of phosphorylated F-PKB-C in the presence (15 μM) and absence of PIP3-histone added for 10 min to RBL cells loaded with F-PKB-C-SS-TAT (FIG. 6C,D).
as §1, with “otherwise. The cells were continually washed with ECB maintained at 37° C. (unless otherwise indicated) with a flow rate of 1 ml/min and a total chamber volume of 0.5 ml.” for “otherwise.”
as §2

HT1080 cells = experiment: CACE single-cell analysis: loading and release of cargo; type: cell-based, human
PKB [3] = molecular target: T1, PKB; experiment: CACE: intracellular phosphorylation of PKB substrate in HT1080 cells; type: cell-based; conditions: cells with only two peaks
Source text: Since the properties of F-PKB (SEQ ID NO:17) microinjected into HT1080 cells have been well characterized, experiments were undertaken to compare the fate of F-PKB-C loaded as F-PKB-C-SS-TAT (SEQ ID NO:16) into HT1080 cells to that of the microinjected F-PKB (SEQ ID NO:17). When microinjected, the percentage of phosphorylated F-PKB depended on the relative, steady-state levels of both the kinases and phosphatases. This observation is shown in electrophoretic traces from cells loaded with F-PKB-C-SS-TAT (1 μM) (FIG. 6). A single asterisk denotes the migration time of F-PKB, and a double asterisk denotes the migration time of phosphorylated F-PKB from cells on the day of the experiment.
CACE has been previously described (Sims, Meredith et al. 1998; Meredith, Sims et al. 2000; Li, Wu et al. 2001). Briefly, cells were placed on an inverted fluorescence microscope stage (Diaphot 300, Nikon, Japan) and maintained at 37° C. with an objective heater (Bioptechs; Butler, Pa.) prior to lysis unless stated otherwise. The cells were continually washed with ECB maintained at 37° C. (unless otherwise indicated) with a flow rate of 1 ml/min and a total chamber volume of 0.5 ml. The inlet of a capillary (30 μm I.D., 360 μm O.D., 75 cm long) was positioned 10 μm above the cell. The inverted microscope was coupled to a pulsed Nd:YAG laser and a CE system (Sims, 1998). The CACE-based assay was performed as previously described (U, 2001; Meredith, 2000). Cells were always maintained in ECB when analyzed by the CACE.
CE was performed as described (Sims, Meredith et al. 1998), with the following modifications. The inner walls of the capillaries (30 μm I.D., 360 μm O.D.) were coated with poly(acrylate) (Wang, Hu et al. 2003). The outlet of the capillary was held at a negative potential of 18-21 kV, and the inlet reservoir was held at ground potential. Under these conditions, the current through the capillary was typically ˜36 μA. Solutions of standards were loaded into the capillary by gravitational fluid flow. The loaded volume was calculated from Poiseulle's equation and from contributions by spontaneous fluid displacement and diffusion (Weinberger, 2000; Fishman, 1994; Crank, 1989). To estimate the number of moles of peptide in an unknown solution or within a cell, the peak area from the electrophoretic trace of the solution or the cell was compared to that of a standard of known concentration separated by electrophoresis on the same day. A 1 pL cell volume and 100% peptide recovery was assumed in calculating intracellular peptide concentration (Meredith, Sims et al. 2000; Sims, Meredith et al. 1998). Analytes were detected by laser-induced fluorescence (Sims, Meredith et al. 1998).
Cells were incubated at room temperature for 5 minutes in 1% bovine serum albumin (BSA) in ECB, washed in ECB, and then incubated for 5 minutes at room temperature with a substrate conjugated to TAT(49-57). The cells were then washed with 1% BSA in ECB. Cells loaded with the disulfide conjugate were placed in supplement DMEM (10% FCS, 4 mM L-glutamine, 100 U/mL penicillin and 100 μg/mL streptomycin) and incubated at 37° C. in 5% CO2 for 20 minutes. Cells loaded with the photolabile conjugate were placed in supplemented DMEM and incubated at 37° C. in 5% CO2 for 10 minutes (unless stated otherwise) and were then illuminated with a UV light source for 10 seconds (a radiant energy/unit area of 2 kJ/m^2). The supplemented DMEM was exchanged and the cells were incubated another 10 minutes at 37° C. in 5% CO2. Just prior to analysis the cells were washed into ECB.

RBL cells = experiment: CACE single-cell analysis: loading and release of cargo; type: cell-based, rat; conditions: 750 nM extracellular
[4] = system: F-CamKII-TAT (fluorescein-labeled CamKII substrate peptide conjugated to TAT(49-57) through a peptide bond)
recombinant CamKII = molecular target: T3, recombinant CamKII (Rattus norvegicus, UniProt P11275); experiment: In vitro kinase assay, 32P phosphate incorporation; type: biochemical; conditions: peptides 5-60 μM, 30° C., 30 minutes
T3 construct: purchased Calbiochem (San Diego, Calif.) / EMD Biosciences (San Diego, Calif.)
Description: In addition to assessing the electrophoretic behavior of F-CamKII-TAT, the ability of this conjugated sequence to act as an efficient substrate for the CamKII enzyme was characterized. The amount of phosphate incorporated into the substrate peptide alone and into F-CamKII-TAT by CamKII was measured in vitro. In the range of measured peptide concentrations, 90% less phosphate was incorporated by the CamKII enzyme into F-CamKII-TAT compared to the peptide lacking the TAT(49-57) sequence. The kinetic properties of CamKII enzyme for the CamKII peptide substrate were degraded when the peptide was conjugated to TAT(49-57).
Peptides (5-60 μM) were phosphorylated in vitro by 100 units of recombinant CamKII (EMD Biosciences; San Diego, Calif.) in 20 mM Tris-HCl, 10 mM MgCl2, 0.5 mM dithiothreitol (DTT), and 0.1 mM Ethylenediaminetetraacetic acid-(EDTA, pH 7.5) with […], 2 mM CaCl2 and […] [[…]-^32P]-ATP. The final specific activity of the [[…]-^32P]-ATP was 100 cpm/pmole; the total reaction volume was 25 μL. The mixture was incubated at 30° C. for 30 minutes. The reaction was stopped by adding 45 μL ice-cold 10% (v/v) trichloroacetic acid, mixed with a vortex, centrifuged, and blotted onto P81 phosphocellulose paper. Phosphate incorporation was quantified with a liquid scintillation counter (LS 3801; Beckman Instruments; Irvine, Calif.)

cells = experiment: Confocal microscopy of conjugate uptake; type: cell-based; conditions: same concentration for all conjugates
Source text: The ability of the D- and L-arginine polymers to enhance trans-membrane transport was confirmed by confocal microscopy (see FIGS. 6A-F and Example 4).

Jurkat cells = experiment: Michaelis-Menten kinetics of cellular uptake; type: cell-based, human; conditions: 4° C. (on ice), Lineweaver-Burk plots, incubation 30-240 seconds
Description: When cellular uptake of polymers of D- and L-arginine were analyzed by Michaelis-Menten kinetics (see Example 6), the rate of uptake by Jurkat cells was so efficient that precise Km values could only be obtained when the assays were carried out at 4° C. (on ice). Both the maximal rate of transport (Vmax) and the apparent affinity of the peptides for the putative receptor of the Michaelis constant (Km) were derived from Lineweaver-Burk plots of the observed fluorescence of Jurkat cells after incubation with varying concentrations of nonamers of D- and L-arginine for 30, 60, 120, and 240 seconds.

Gly Arg Pro Arg Ala Ala Thr Phe Ala Glu Gly Cys Arg Lys Lys Arg Arg Gln Arg Arg Arg (Fluorescein-GRPRAATFAEGCRKKRRQRRR-NH2; not fully specified; printed as Gly Arg Pro Arg Ala Ala Thr Phe Ala Glu Gly Cys Arg Lys Lys Arg Arg Gln Arg Arg Arg; also: disulfide linkage between the PKB-Cys part and the TAT part (partner not shown)) [F-PKB-C-SS-TAT, F-PKB-C conjugated to TAT(49-57) via a disulfide bond]
peak of phosphorylated F-PKB-C (PKB [1]): no peak was present
F-PKB-C phosphorylated (PKB [2]; PIP3-histone 15 μM 10 min, n=4): 39%±14%
F-PKB-C phosphorylation (PKB [2]; cells not exposed to PIP3-histone): no phosphorylation
average amount of detected F-PKB-C (HT1080 cells; 215 nM extracellular): 2.5e-19 ± 3e-20 mol
cytosolic concentration of free F-PKB-C (HT1080 cells; 215 nM extracellular): ~250 nM
detectable F-PKB-C per cell (HT1080 cells; 1 μM extracellular): 7e-19 ± 3e-20 mol
cytosolic concentration of free F-PKB-C (HT1080 cells; 1 μM extracellular, 1 pL cell volume assumed): ~700 nM
peptide present as phosphorylated F-PKB-C (PKB [3]): 75±8%
detectable F-PKB-C per cell (RBL cells): 1.4e-20 ± 1e-21 mol
intracellular concentration (RBL cells): ~14 nM

Recombinant calcium-calmodulin activated kinase II (CamKII)
phosphate incorporated into the peptide by CamKII in vitro (32P-ATP kinase assay), compared to the substrate peptide lacking TAT(49-57) [4]: 90% less phosphate was incorporated by the CamKII enzyme into F-CamKII-TAT compared to the peptide lacking the TAT(49-57) sequence

Lys Lys Ala Leu His Arg Gln Glu Thr Val Asp Ala Leu Arg Lys Lys Arg Arg Gln Arg Arg Arg (KKALHRQETVDALRKKRRQRRR-NH2; not fully specified (N-terminus); printed as Lys Lys Ala Leu His Arg Gln Glu Thr Val Asp Ala Leu Arg Lys Lys Arg Arg Gln Arg Arg Arg; also: fluorescein label, position not given here) [F-CamKII-TAT, F-CamKII conjugated to TAT(49-57) through a peptide bond]
less phosphate incorporated by CamKII compared to the peptide lacking the TAT(49-57) sequence (recombinant CamKII): 90%

RKKRRQRRR [TAT(49-57), basic region of HIV TAT protein, residues 49-57]
fluorescence of cytosol by confocal microscopy (cells): only weak staining
Km (Jurkat cells): 722 µM
Vmax (Jurkat cells): 0.38 µM/s
